Patent publication US20240091321A1

How the values were obtained:
CI-MPR receptor [1] = assay: CIMPR binding assay, PPT1 conditioned media, curves starting at 25 nM, bound PPT1 activity; the table prints no units, units of the axes
CI-MPR receptor [2] = assay: CIMPR binding assay, PPT1 conditioned media, dilution starting at 50 nM, bound PPT1 activity; the table prints no units, units of the axes

Binder | Bmax (CI-MPR receptor [1]) | Kd (CI-MPR receptor [1]) | Bmax (CI-MPR receptor [2]) | Kd (CI-MPR receptor [2])
PPT1-105 (enzyme, part only; not given: linker identity, part only) fusion protein, part: SRALQHLDPPAPLPLVIWHGMGDSCCNPLSMGAIKKMVEKKIPGIYVLSLEIGKTLMEDVENSFFLNVNSQVTTVCQALAKDPKLQQGYNAMGFSQGGQFLRAVAQRCPSPPMINLISVGGQHQGVFGLPRCPGESSHICDFIRKTLNAGAYSKVVQERLVQAEYWHDPIKEDVYRNHSIFLADINQERGINESYKKNLMALKKFVMVKFLNDSIVDPVDSEWFGFYRSGQAKETIPLQETSLYTQDRLGLKEMDNAGQLVFLATEGDHLQLSEEWFYAHIIPFLGRPRAVPTQSRTLCGGELVDTLQFVCGDRGFLFSRGGGGSRGILEECCFRDCDLALLETYCATPARSE | 73.5 nmol/mL/h | 4.45 nM | 73.5 nmol/mL/h | 4.45 nM
PPT1-106 (enzyme, part only; not given: linker identity, part only) fusion protein, part: SRALQHLDPPAPLPLVIWHGMGDSCCNPLSMGAIKKMVEKKIPGIYVLSLEIGKTLMEDVENSFFLNVNSQVTTVCQALAKDPKLQQGYNAMGFSQGGQFLRAVAQRCPSPPMINLISVGGQHQGVFGLPRCPGESSHICDFIRKTLNAGAYSKVVQERLVQAEYWHDPIKEDVYRNHSIFLADINQERGINESYKKNLMALKKFVMVKFLNDSIVDPVDSEWFGFYRSGQAKETIPLQETSLYTQDRLGLKEMDNAGQLVFLATEGDHLQLSEEWFYAHIIPFLGRPRAVPTQSRTLCGGELVDTLQFVCGDRGFLFSRGGGGSRGILEECCFRECDLALLETYCATPARSE | 91.4 nmol/mL/h | 5.46 nM | 91.4 nmol/mL/h | 5.46 nM
